Results on 1 molecule are retold here after patent US20150139990A1 (DAINIPPON SUMITOMO PHARMA, published 2015).

Some results are limits rather than exact numbers.

Assay [1] has as its target T1, human CD81 on CD81-expressing cells (Jurkat E6.1, human PBMC, Ramos) (human, UniProt P60033 1-236).
T1 construct: endogenous CD81 of the cells; also called wild type human CD81
T1 sequence: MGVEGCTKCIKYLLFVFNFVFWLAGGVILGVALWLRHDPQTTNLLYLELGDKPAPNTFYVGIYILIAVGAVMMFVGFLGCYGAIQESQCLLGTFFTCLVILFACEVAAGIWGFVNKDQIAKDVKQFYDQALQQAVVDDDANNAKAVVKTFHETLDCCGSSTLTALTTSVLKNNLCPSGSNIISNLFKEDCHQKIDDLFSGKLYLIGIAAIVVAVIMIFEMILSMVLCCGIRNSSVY
The assay can be described thus: flow cytometry, Jurkat E6.1 cells. The source says: Based on known information (JOURNAL OF VIROLOGY., 79, 4316-4328, 2005), Jurkat E6.1 cells and human PBMC (Peripheral Blood Mononuclear cells) were used as human CD81-expressing cells to confirm binding of the antibodies of the present invention obtained in Example 1 to the human CD81-expressing cells. Jurkat E6.1 cells were purchased from European Collection of Cell Cultures (ECACC) (Cat No. 88042803). Human PBMC were purchased from KAC Co., Ltd. (KAC). These cells were collected by centrifugation (4,000 rpm, 3 min, 4° C.) and suspended in FACS staining buffer (phosphate buffer, 0.09% sodium azide, 1% bovine serum albumin (BSA: Hyclone Laboratories)). The number of viable cells was counted using trypan blue and 10⁶ cells/100 μl were added in an eppendorf tube.
To the cells prepared in (1) above was added the anti-human CD81 antibody (002-A07 or 005-001) prepared in Example 1 or a human IgG4 (Acris) as a control (0.1 μg), and the cells were incubated for 20 min at 4° C. […] The binding ratio (%) of the anti-human CD81 antibody to the cells was analyzed by flow cytometry using FACS Calibur (BD Biosciences) and calculated as the percentage of cells having a PE-derived fluorescent intensity greater than that observed when the control IgG4 is used. […]
On the technique in general: A flow cytometer gives signals particle by particle.

Another assay deals with T2, human CD81 mutant G158S (human, UniProt P60033 1-236, limits assumed).
T2 construct: as m30; not shown: C-terminal V5 and 6xHis tags
T2 sequence: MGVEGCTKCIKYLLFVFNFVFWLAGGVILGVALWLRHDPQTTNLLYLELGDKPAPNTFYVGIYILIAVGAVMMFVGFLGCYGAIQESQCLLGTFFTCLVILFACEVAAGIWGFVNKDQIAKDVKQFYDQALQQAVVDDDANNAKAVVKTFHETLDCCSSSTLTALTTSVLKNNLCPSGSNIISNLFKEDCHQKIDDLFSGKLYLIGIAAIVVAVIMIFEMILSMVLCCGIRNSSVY
The assay can be described thus: ELISA. An outline of the steps: (§1)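 Altered forms of human CD81 carrying C-terminal V5 and 6×His tags were cloned in pcDNA-DEST40 and expressed transiently in CHO cells for 48 hours, after which membranes were solubilised in 1% n-octylglucoside and captured on Ni-NTA His Sorb plates at 5 μg/100 μL/well for 3 hours at 4° C. Antibody was bound for 1 hour at room temperature and detected with HRP anti-human IgG4 and TMB, reading absorbance at 450 nm. Relative binding affinity is expressed as a percentage of binding to unmodified CD81, adjusted for V5-tag expression.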
(ELISA stands for enzyme-linked immunosorbent assay.)

In a further assay the target is T3, human CD81 mutant L165A (human, UniProt P60033 1-236, limits assumed).
T3 construct: as m30; not shown: C-terminal V5 and 6xHis tags
T3 sequence: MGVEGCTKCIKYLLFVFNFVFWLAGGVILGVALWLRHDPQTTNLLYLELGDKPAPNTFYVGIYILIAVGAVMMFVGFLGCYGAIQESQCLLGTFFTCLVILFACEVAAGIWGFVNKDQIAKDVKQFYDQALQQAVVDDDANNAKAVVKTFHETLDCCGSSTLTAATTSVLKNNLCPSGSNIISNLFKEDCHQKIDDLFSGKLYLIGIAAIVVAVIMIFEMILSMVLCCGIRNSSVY
The assay can be described thus: ELISA. An outline of the steps: as §1

The target in a further assay is T4, human CD81 mutant V135A (human, UniProt P60033 1-236, limits assumed).
T4 construct: as m30; not shown: C-terminal V5 and 6xHis tags
T4 sequence: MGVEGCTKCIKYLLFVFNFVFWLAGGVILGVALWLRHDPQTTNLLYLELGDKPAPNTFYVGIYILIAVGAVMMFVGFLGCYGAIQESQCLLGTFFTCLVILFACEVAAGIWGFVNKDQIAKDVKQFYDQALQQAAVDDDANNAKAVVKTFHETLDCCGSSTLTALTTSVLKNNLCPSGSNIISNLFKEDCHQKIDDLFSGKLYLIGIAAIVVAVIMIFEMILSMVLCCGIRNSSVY
The assay can be described thus: ELISA. An outline of the steps:
as §1

For the next assay, the target named is T5, human CD81 mutant A164T (human, UniProt P60033 1-236, limits assumed).
T5 construct: as m30; not shown: C-terminal V5 and 6xHis tags
T5 sequence: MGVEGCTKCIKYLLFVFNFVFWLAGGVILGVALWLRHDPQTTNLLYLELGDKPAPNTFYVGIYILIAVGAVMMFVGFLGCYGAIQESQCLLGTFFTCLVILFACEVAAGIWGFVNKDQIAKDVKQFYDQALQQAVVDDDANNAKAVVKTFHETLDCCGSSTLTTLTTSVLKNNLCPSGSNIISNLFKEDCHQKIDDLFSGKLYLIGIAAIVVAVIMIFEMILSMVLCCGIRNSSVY
The assay can be described thus: ELISA. An outline of the steps:
as §1

Another assay addresses T6, human CD81 mutant D137A (human, UniProt P60033 1-236, limits assumed).
T6 construct: as m30; not shown: C-terminal V5 and 6xHis tags
T6 sequence: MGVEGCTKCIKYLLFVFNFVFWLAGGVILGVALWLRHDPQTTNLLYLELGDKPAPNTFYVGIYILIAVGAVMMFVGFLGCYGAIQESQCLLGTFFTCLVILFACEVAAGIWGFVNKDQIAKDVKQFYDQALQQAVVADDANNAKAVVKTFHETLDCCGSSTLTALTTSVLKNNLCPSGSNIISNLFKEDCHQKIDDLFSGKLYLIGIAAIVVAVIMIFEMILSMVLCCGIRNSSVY
The assay can be described thus: ELISA. An outline of the steps:
as §1

B1: 002-A07 IgG4 antibody (antibody)
heavy: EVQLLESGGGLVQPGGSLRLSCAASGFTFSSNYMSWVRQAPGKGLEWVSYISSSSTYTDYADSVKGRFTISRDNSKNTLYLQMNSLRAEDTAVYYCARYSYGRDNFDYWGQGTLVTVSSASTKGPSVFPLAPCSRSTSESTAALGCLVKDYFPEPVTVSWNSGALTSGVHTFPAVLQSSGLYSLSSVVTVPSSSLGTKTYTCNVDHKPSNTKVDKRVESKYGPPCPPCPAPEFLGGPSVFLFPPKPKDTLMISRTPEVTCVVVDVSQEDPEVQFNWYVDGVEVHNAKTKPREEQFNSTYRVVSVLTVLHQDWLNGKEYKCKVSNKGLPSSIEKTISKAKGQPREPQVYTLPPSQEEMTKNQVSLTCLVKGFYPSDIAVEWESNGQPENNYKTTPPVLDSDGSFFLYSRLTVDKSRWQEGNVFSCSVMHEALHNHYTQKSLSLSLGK
light: QSVLTQPPSASGTPGQRVTISCTGSTSNIGAGYDTHWYQQLPGTAPKLLIYGNSNRPSGVPDRFSGSKSGTSASLAISGLRSEDEADYYCQSYDTNLSVWVFGGGTKLTVLGQPKAAPSVTLFPPSSEELQANKATLVCLISDFYPGAVTVAWKADSSPVKAGVETTTPSKQSNNKYAASSYLSLTPEQWKSHRSYSCQVTHEGSTVEKTVAPTECS
notes: human IgG4 S228P, lambda light chain
For the molecule B1, the “binding ratio to cells (%)” value in assay [1] was found to be 100%. Further, the relative binding affinity in the assay with human CD81 mutant G158S, with human CD81 mutant L165A, with human CD81 mutant V135A, in the assay with human CD81 mutant A164T and with human CD81 mutant D137A was less than 20% throughout.
